# Experimental data reported in US20230407373A1 (priority 2020, published 2023).
# B1: RRBP1: host protein, UniProt Q9P2E9 (protein, UniProt Q9P2E9 1-1410, looked up)
# Ribosome-binding protein 1: MDIYDTQTLGVVVFGGFMVVSAIGIFLVSTFSMKETSYEEALANQRKEMAKTHHQKVEKKKKEKTVEKKGKTKKKEEKPNGKIPDHDPAPNVTVLLREPVRAPAVAVAPTPVQPPIIVAPVATVPAMPQEKLASSPKDKKKKEKKVAKVEPAVSSVVNSIQVLTSKAAILETAPKEVPMVVVPPVGAKGNTPATGTTQGKKAEGTQNQSKKAEGAPNQGRKAEGTPNQGKKTEGTPNQGKKAEGTPNQGKKAEGTPNQGKKAEGAQNQGKKVDTTPNQGKKVEGAPTQGRKAEGAQNQAKKVEGAQNQGKKAEGAQNQGKKGEGAQNQGKKAEGAQNQGKKAEGAQNQGKKAEGAQNQGKKAEGAQNQGKKAEGAQNQGKKAEGAQNQGKKVEGAQNQGKKAEGAQNQGKKAEGAQNQGKKAEGAQNQGKKAEGAQNQGKKAEGAQNQGKKAEGAQNQGKKAEGAQNQGKKVEGAQNQGKKAEGAQNQGKKAEGAQNQGKKAEGAQNQGQKGEGAQNQGKKTEGAQGKKAERSPNQGKKGEGAPIQGKKADSVANQGTKVEGITNQGKKAEGSPSEGKKAEGSPNQGKKADAAANQGKKTESASVQGRNTDVAQSPEAPKQEAPAKKKSGSKKKGEPGPPDADGPLYLPYKTLVSTVGSMVFNEGEAQRLIEILSEKAGIIQDTWHKATQKGDPVAILKRQLEEKEKLLATEQEDAAVAKSKLRELNKEMAAEKAKAAAGEAKVKKQLVAREQEITAVQARMQASYREHVKEVQQLQGKIRTLQEQLENGPNTQLARLQQENSILRDALNQATSQVESKQNAELAKLRQELSKVSKELVEKSEAVRQDEQQRKALEAKAAAFEKQVLQLQASHRESEEALQKRLDEVSRELCHTQSSHASLRADAEKAQEQQQQMAELHSKLQSSEAEVRSKCEELSGLHGQLQEARAENSQLTERIRSIEALLEAGQARDAQDVQASQAEADQQQTRLKELESQVSGLEKEAIELREAVEQQKVKNNDLREKNWKAMEALATAEQACKEKLLSLTQAKEESEKQLCLIEAQTMEALLALLPELSVLAQQNYTEWLQDLKEKGPTLLKHPPAPAEPSSDLASKLREAEETQSTLQAECDQYRSILAETEGMLRDLQKSVEEEEQVWRAKVGAAEEELQKSRVTVKHLEEIVEKLKGELESSDQVREHTSHLEAELEKHMAAASAECQNYAKEVAGLRQLLLESQSQLDAAKSEAQKQSDELALVRQQLSEMKSHVEDGDIAGAPASSPEAPPAEQDPVQLKTQLEWTEAILEDEQTQRQKLTAEFEEAQTSACRLQEELEKLRTAGPLESSETEEASQLKERLEKEKKLTSDLGRAATRLQELLKTTQEQLAREKDTVKKLQEQLEKAEDGSSSKEGTSV
# B2: ESRP2 (protein, UniProt Q9H6T0 1-727, looked up)
# Epithelial splicing …: MTPPPPPPPPPGPDPAADPAADPCPWPGSLVVLFGATAGALGRDLGSDETDLILLVWQVVEPRSRQVGTLHKSLVRAEAAALSTQCREASGLSADSLARAEPLDKVLQQFSQLVNGDVALLGGGPYMLCTDGQQLLRQVLHPEASRKNLVLPDMFFSFYDLRREFHMQHPSTCPARDLTVATMAQGLGLETDATEDDFGVWEVKTMVAVILHLLKEPSSQLFSKPEVIKQKYETGPCSDSTVPCPYSSKADVVDSETVVRARGLPWQSSDQDVARFFKGLNVARGGVALCLNAQGRRNGEALIRFVDSEQRDLALQRHKHHMGVRYIEVYKATGEEFVKIAGGTSLEVARFLSREDQVILRLRGLPFSAGPTDVLGFLGPECPVTGGTEGLLFVRHPDGRPTGDAFALFACEELAQAALRRHKGMLGKRYIELFRSTAAEVQQVLNRYASGPLLPTLTAPLLPIPFPLAPGTGRDCVRLRGLPYTATIEDILSFLGEAAADIRPHGVHMVLNQQGRPSGDAFIQMTSAERALAAAQRCHKKVMKERYVEVVPCSTEEMSRVLMGGTLGRSGMSPPPCKLPCLSPPTYTTFQATPTLIPTETAALYPSSALLPAARVPAAPTPVAYYPGPATQLYLNYTAYYPSPPVSPTTVGYLTTPTAALASAPTSVLSQSGALVRMQGVPYTAGMKDLLSVFQAYQLPADDYTSLMPVGDPPRTVLQAPKEWVCL
# B3: RBM4 (protein, UniProt Q9BWF3 1-364, looked up)
# RNA-binding protein 4: MVKLFIGNLPREATEQEIRSLFEQYGKVLECDIIKNYGFVHIEDKTAAEDAIRNLHHYKLHGVNINVEASKNKSKTSTKLHVGNISPTCTNKELRAKFEEYGPVIECDIVKDYAFVHMERAEDAVEAIRGLDNTEFQGKRMHVQLSTSRLRTAPGMGDQSGCYRCGKEGHWSKECPIDRSGRVADLTEQYNEQYGAVRTPYTMSYGDSLYYNNAYGALDAYYKRCRAARSYEAVAAAAASVYNYAEQTLSQLPQVQNTAMASHLTSTSLDPYDRHLLPTSGAAATAAAAAAAAAAVTAASTSYYGRDRSPLRRATAPVPTVGEGYGYGHESELSQASAAARNSLYDMARYEREQYADRARYSAF
# B4: POP1: host protein, UniProt Q99575 (protein, UniProt Q99575 1-1024, looked up)
# Ribonucleases P/MRP protein …: MSNAKERKHAKKMRNQPTNVTLSSGFVADRGVKHHSGGEKPFQAQKQEPHPGTSRQRQTRVNPHSLPDPEVNEQSSSKGMFRKKGGWKAGPEGTSQEIPKYITASTFAQARAAEISAMLKAVTQKSSNSLVFQTLPRHMRRRAMSHNVKRLPRRLQEIAQKEAEKAVHQKKEHSKNKCHKARRCHMNRTLEFNRRQKKNIWLETHIWHAKRFHMVKKWGYCLGERPTVKSHRACYRAMTNRCLLQDLSYYCCLELKGKEEEILKALSGMCNIDTGLTFAAVHCLSGKRQGSLVLYRVNKYPREMLGPVTFIWKSQRTPGDPSESRQLWIWLHPTLKQDILEEIKAACQCVEPIKSAVCIADPLPTPSQEKSQTELPDEKIGKKRKRKDDGENAKPIKKIIGDGTRDPCLPYSWISPTTGIIISDLTMEMNRFRLIGPLSHSILTEAIKAASVHTVGEDTEETPHRWWIETCKKPDSVSLHCRQEAIFELLGGITSPAEIPAGTILGLTVGDPRINLPQKKSKALPNPEKCQDNEKVRQLLLEGVPVECTHSFIWNQDICKSVTENKISDQDLNRMRSELLVPGSQLILGPHESKIPILLIQQPGKVTGEDRLGWGSGWDVLLPKGWGMAFWIPFIYRGVRVGGLKESAVHSQYKRSPNVPGDFPDCPAGMLFAEEQAKNLLEKYKRRPPAKRPNYVKLGTLAPFCCPWEQLTQDWESRVQAYEEPSVASSPNGKESDLRRSEVPCAPMPKKTHQPSDEVGTSIEHPREAEEVMDAGCQESAGPERITDQEASENHVAATGSHLCVLRSRKLLKQLSAWCGPSSEDSRGGRRAPGRGQQGLTREACLSILGHFPRALVWVSLSLLSKGSPEPHTMICVPAKEDFLQLHEDWHYCGPQESKHSDPFRSKILKQKEKKKREKRQKPGRASSDGPAGEEPVAGQEALTLGLWSGPLPRVTLHCSRTLLGFVTQGDFSMAVGCGEALGFVSLTGLLDMLSSQPAAQRGLVLLRPPASLQYRFARIAIEV
# B5: APOBEC3F (protein, UniProt Q8IUX4 1-373, looked up)
# DNA dC->dU-editing enzyme …: MKPHFRNTVERMYRDTFSYNFYNRPILSRRNTVWLCYEVKTKGPSRPRLDAKIFRGQVYSQPEHHAEMCFLSWFCGNQLPAYKCFQITWFVSWTPCPDCVAKLAEFLAEHPNVTLTISAARLYYYWERDYRRALCRLSQAGARVKIMDDEEFAYCWENFVYSEGQPFMPWYKFDDNYAFLHRTLKEILRNPMEAMYPHIFYFHFKNLRKAYGRNESWLCFTMEVVKHHSPVSWKRGVFRNQVDPETHCHAERCFLSWFCDDILSPNTNYEVTWYTSWSPCPECAGEVAEFLARHSNVNLTIFTARLYYFWDTDYQEGLRSLSQEGASVEIMGYKDFKYCWENFVYNDDEPFKPWKGLKYNFLFLDSKLQEILE
# Test system: gRNA of HCoV-OC43
# Format: binding
# Details: type g_36_m; HCoV-OC43-infected HCT-8 cells, 36 hpi, Probe I
row,Molecule,target (spectral count)
1,B1,22

# Same assay, conditions: type g_36_m; uninfected-probe control, 36 hpi, Probe I
row,Molecule,background (spectral count)
1,B1,1

# Same assay, conditions: type n_48_v: 48 hours post-infection, infected cells, OC43 Probe I; unweighted spectral count
row,Molecule,"target (spectral count, OC43 Probe I RNP capture)"
1,B2,6
2,B3,6
3,B1,17
4,B4,6
5,B5,6

# Same assay, conditions: type n_48_v: 48 hours post-infection, no-probe control on infected cells
row,Molecule,"background (spectral count, no-probe control)"
1,B2,1
2,B3,1
3,B1,5
4,B4,1
5,B5,1

# Test system: HCoV-OC43 gRNA and sgRNA
# Format: binding
# Details: 24 hpi; type n_24_v; tested against no-probe control; FDR<10%
row,Molecule,"target (unweighted spectral count, OC43 Probe II capture)"
1,B2,5
2,B3,4
3,B1,10

# Same assay, conditions: 36 hpi; type n_36_v; tested against no-probe control; FDR<10%
row,Molecule,"target (unweighted spectral count, OC43 Probe II capture)"
1,B2,6
2,B3,4
3,B1,16
4,B4,8
5,B5,4

# Same assay, conditions: type n_48_v; 48 hpi; OC43 Probe II capture on infected cells
row,Molecule,"target (unweighted spectral count, OC43 Probe II)"
1,B2,8
2,B1,32
3,B4,7
4,B5,6

# Same assay, conditions: type n_48_v; 48 hpi; no-probe control on infected cells
row,Molecule,"background (unweighted spectral count, no-probe control)"
1,B2,1
2,B1,5
3,B4,1
4,B5,1

# Same assay, conditions: type s_36_m; HCoV-OC43-infected HCT-8 cells, 36 hpi, Probe II
row,Molecule,target (spectral count)
1,B1,16
2,B4,8

# Same assay, conditions: type s_36_m; uninfected-probe control, 36 hpi, Probe II
row,Molecule,background (spectral count)
1,B1,1
2,B4,1
